Target: Wild-type CFTR (cystic fibrosis transmembrane conductance regulator) N-terminally labelled with GFP or RFP (UniProt P13569)
Test: FRET or BRET; acceptor-photobleaching FRET between GFP-CFTR (donor) and RFP-CFTR (acceptor) in fixed HEK293T cells, measured intracellularly, basal conditions (air exposure)

FRET efficiency (%E): 0%
Substance: Wild-type CFTR (cystic fibrosis transmembrane conductance regulator) N-terminally labelled with GFP or RFP (from UniProt P13569 1-1480) (natural protein)

From article PMC6754399
